Results published in US20240301052A1 (LANOVA MEDICINES DEVELOPMENT, published 2024).
Read-outs that look alike come from different tables or passages of the source.

T1: human SLC34A2 (human, UniProt O95436 1-690)
T1 construct: whole, on cells; also called human solute carrier 34 A2; NaPi2b
T1 sequence (looked up): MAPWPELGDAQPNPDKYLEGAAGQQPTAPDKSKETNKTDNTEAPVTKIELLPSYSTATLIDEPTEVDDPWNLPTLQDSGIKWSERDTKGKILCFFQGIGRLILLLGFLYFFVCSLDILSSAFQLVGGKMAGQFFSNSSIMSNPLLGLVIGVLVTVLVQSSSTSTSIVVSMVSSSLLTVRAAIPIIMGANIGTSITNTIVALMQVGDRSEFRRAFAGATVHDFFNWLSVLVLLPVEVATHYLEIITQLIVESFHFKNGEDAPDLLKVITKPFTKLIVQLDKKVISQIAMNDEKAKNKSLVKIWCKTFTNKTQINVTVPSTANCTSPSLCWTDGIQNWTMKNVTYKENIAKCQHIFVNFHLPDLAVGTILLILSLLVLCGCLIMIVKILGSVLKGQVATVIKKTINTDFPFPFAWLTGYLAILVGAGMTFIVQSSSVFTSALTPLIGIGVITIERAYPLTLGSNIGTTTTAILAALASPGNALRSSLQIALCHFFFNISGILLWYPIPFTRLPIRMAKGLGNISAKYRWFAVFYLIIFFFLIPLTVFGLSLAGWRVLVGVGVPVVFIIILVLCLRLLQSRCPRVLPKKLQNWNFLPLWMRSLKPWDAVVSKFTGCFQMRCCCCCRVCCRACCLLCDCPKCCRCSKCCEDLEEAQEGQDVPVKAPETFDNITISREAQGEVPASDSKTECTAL

T2: Rhesus SLC34A2 (Rhesus, UniProt F7HDA3 1-690)
T2 construct: whole, on cells
T2 sequence: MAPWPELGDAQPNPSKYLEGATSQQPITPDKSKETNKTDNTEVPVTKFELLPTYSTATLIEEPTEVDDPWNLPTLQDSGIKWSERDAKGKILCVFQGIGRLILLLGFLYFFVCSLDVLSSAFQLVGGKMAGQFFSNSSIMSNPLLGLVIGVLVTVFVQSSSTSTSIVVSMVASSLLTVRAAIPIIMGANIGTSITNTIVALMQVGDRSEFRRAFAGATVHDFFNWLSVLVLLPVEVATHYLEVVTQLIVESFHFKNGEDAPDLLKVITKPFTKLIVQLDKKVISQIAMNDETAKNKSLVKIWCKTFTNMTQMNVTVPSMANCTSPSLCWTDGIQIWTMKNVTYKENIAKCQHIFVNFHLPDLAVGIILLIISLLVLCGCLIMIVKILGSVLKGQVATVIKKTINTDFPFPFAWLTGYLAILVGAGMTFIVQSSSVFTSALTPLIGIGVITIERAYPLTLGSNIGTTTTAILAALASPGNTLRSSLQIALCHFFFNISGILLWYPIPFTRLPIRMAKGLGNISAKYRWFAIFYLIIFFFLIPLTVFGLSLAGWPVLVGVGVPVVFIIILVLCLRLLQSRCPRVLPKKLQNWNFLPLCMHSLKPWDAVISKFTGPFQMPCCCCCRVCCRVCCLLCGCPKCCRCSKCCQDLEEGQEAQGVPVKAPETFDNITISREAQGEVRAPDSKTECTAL


Legend:
human SLC34A2 [1] = target: T1, human SLC34A2; experiment: FACS, RMG-1 cells
Method in brief: (§1)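 Each cell line was labeled with humanized antibody (4° C., 60 min), then with a fluorescent conjugated secondary (4° C., 30 min), with double washes after each step; fluorescence was read by flow cytometry.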

human SLC34A2 [2] = target: T1, human SLC34A2; experiment: FACS, RMG-1 cells; remark: listed apart in the source
human SLC34A2 [3] = target: T1, human SLC34A2; experiment: FACS, OVCAR3 cells
Method in brief: as §1

human SLC34A2 [4] = target: T1, human SLC34A2; experiment: FACS, MDAH2774 cells
human SLC34A2 [5] = target: T1, human SLC34A2; experiment: cell-based or functional assay
human SLC34A2 [6] = target: T1, human SLC34A2; experiment: cell-based or functional assay; remark: listed apart in the source
human SLC34A2 [7] = target: T1, human SLC34A2; experiment: FACS, HEK293/human SLC34A2 cells
Method in brief: as §1

Rhesus SLC34A2 [8] = target: T2, Rhesus SLC34A2; experiment: FACS, HEK293/Rhesus SLC34A2 cells
Rhesus SLC34A2 [9] = target: T2, Rhesus SLC34A2; experiment: FACS, HEK293/Rhesus SLC34A2 cells; remark: listed apart in the source

Row | Binder | EC50 (human SLC34A2 [1]) [nM] | Top (human SLC34A2 [1]) [MFI] | EC50 (human SLC34A2 [2]) [nM] | EC50 (human SLC34A2 [3]) [nM] | Top (human SLC34A2 [3]) [MFI] | EC50 (human SLC34A2 [4]) [nM] | ADCC reporter EC50 (human SLC34A2 [5]) [nM] | ADCC reporter Top (MFI) (human SLC34A2 [5]) | ADCC-HEK293 (human SLC34A2 [6]) [nM] | ADCC-OVCAR3 (human SLC34A2 [6]) [nM] | Cytotoxic Effect - MDAH-2774 (human SLC34A2 [6]) [nM] | Cytotoxic Effect - OVCAR3 (human SLC34A2 [6]) [nM] | EC50 (human SLC34A2 [7]) [nM] | Top (human SLC34A2 [7]) [MFI] | EC50 (Rhesus SLC34A2 [8]) [nM] | Top (MFI) (Rhesus SLC34A2 [8]) | EC50 (Rhesus SLC34A2 [9]) [nM]
1 | 91C9F1.p1.z7 hIgG1 (antibody, V domains shown, humanized hIgG1) VH: QVQLVQSGAEVKKPGSSVKVSCKTSGFFFTEYIIHWVRQAPGQGLEWIGGIIPNNDVTNYKQNFRGRVTLTADKSTSTAYMELSSLRSEDTAVYYCARWRNAYYSAMDSWGQGTTVTVSS VL: DIQVTQSPSSLSTSVGDRVTITCTASQDVGTAVAWYQQKPGKSPKLLIYWASTRHTGVPERFTGSGSGTDFTLTISSVQPEDVATYFCQQYRTSPLTFGVGTKVEIK | 2.25 | 9720 | 2.3 | 2.41 | 20500 | 2.06 | 2.12 | 124000 | 0.75 | 0.15 | 0.39 | 0.014 | 1.67 | 37400 | 4.2 | 9500 | 4.2
2 | 30H9B8F9.p1.z5 hIgG1 (antibody, V domains shown, humanized hIgG1) VH: QVQLVQSGAEVKKPGASVKVSCKTSGYTFTTNNMHWVRQAPGQGLEWIGAIYPGSGATAYNQKFKGRVTMTADTSTSTVYMELSSLRSEDTAVYYCARGMYGHGAMDYWGQGTLVTVSS VL: DIQLTQSPSFLSASVGDRVTITCKASQDVGTAVAWYQQKPGKAPKLLIYWATTRHSGVPSRFSGSGSGTEFTLTISSLQPEDFATYYCQQYSSNPLTFGQGTKLEIK | 1.39 | 10900 | 1.4 | 0.94 |  | 1.28 | 0.72 | 135000 | 1.4 | 0.16 | 0.21 | 0.02 | 1.55 | 35200 | 0.7 | 16000 | 0.7
